Data published in patent KR20210073785A (dated 2021).

Target: T1, 호산구 유래 신경독(eosinophil-derived neurotoxin, EDN) (UniProt P10153 28-161)
T1 construct: also called 항원 EDN
T1 sequence (looked up): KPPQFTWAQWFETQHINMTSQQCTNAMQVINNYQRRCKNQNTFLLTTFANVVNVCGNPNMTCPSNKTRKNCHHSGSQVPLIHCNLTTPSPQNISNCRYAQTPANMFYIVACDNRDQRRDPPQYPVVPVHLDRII
Experiment: BLI (Octet), AR2G amine-reactive biosensor, antibody immobilised, EDN as analyte at 12.5, 6.25, 3.13, 1.56 and 0.78 nM, 1X kinetic buffer

B1: 단일클론항체 Anti-6C5 (antibody, V domains shown)
VH: EVQLQQPGPELVKPGASVKISCKASAYSFTDYIMLWVKQSHGKSLEWIGNIHPYYGSSSYNLKFKGKATLTVDKSSSTAYMQLNSLTSEDSAVYYCAREVGFGKGGFDYWGQGTTLTVSS
VL: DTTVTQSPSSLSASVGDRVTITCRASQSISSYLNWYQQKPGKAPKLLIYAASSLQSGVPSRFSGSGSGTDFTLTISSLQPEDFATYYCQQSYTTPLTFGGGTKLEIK
notes: Whole monoclonal antibody produced from hybridoma cell line 6C5 (culture supernatant); The heavy chain ran at 50 kDa on reducing SDS-PAGE; also called Anti-6C5(6C5)
B1 was tested, and the Kd was 0.0576 nM.
